The text below walks through data of article PMC6125642.

In this experiment the target is FITC-labeled aP-C18 peptide (not stated (P. horikoshii and P. furiosus aP1 were both used)). Description: fluorescence polarisation. For orientation: Fluorescence polarisation rises when a labelled molecule tumbles more slowly, as on binding a larger partner.
Broadly, the Kd is the constant that tells how readily two partners part at equilibrium. Higher therefore signals a looser complex. As to aABCE1 A223S (enzyme), the Kd was 46.3 µM.
Regarding aABCE1 I170S (enzyme), the dissociation constant (Kd) was 68.1 µM.
Regarding aABCE1 R227A (enzyme), the Kd is 30.8 µM.
aABCE1 V174S (enzyme): the Kd was determined as 83 µM. Compared with the last substance, the Kd is about 2.7-fold higher.
For aABCE1 V219S (enzyme) the value was 6.3 µM; for aABCE1-ΔN74 (domain or fragment), 4.4 µM.
